Assay results: the supplement of paper PMC11246515
± gives the standard deviation of the averaged measurements.

Test: total protein half-life in vivo (active degradation + dilution); higher = more stable protein
[1] = E. coli NCM3722 delta-clpP delta-lon delta-hslV, growth: N-lim chemostat, doubling time 6 h
[2] = E. coli NCM3722 delta-clpP, growth: N-lim chemostat, doubling time 6 h
[3] = E. coli NCM3722 delta-hslV, growth: N-lim chemostat, doubling time 6 h
[4] = E. coli NCM3722 delta-lon, growth: N-lim chemostat, doubling time 6 h
[5] = E. coli NCM3722 delta-smpB, growth: N-lim chemostat, doubling time 6 h
[6] = wild type E. coli NCM3722, growth: C-lim chemostat, doubling time 3 h
[7] = wild type E. coli NCM3722, growth: C-lim chemostat, doubling time 6 h
[8] = wild type E. coli NCM3722, growth: C-lim chemostat, doubling time 12 h
[9] = wild type E. coli NCM3722, growth: N-lim chemostat, doubling time 6 h
[10] = wild type E. coli NCM3722, growth: N-lim chemostat, doubling time 12 h
[11] = wild type E. coli NCM3722, growth: P-lim chemostat, doubling time 6 h
[12] = wild type E. coli NCM3722, growth: P-lim chemostat, doubling time 12 h

Sequence | total protein half-life in vivo [1] [h] | total protein half-life in vivo [2] [h] | total protein half-life in vivo [3] [h] | total protein half-life in vivo [4] [h] | total protein half-life in vivo [5] [h] | total protein half-life in vivo [6] [h] | total protein half-life in vivo [7] [h] | total protein half-life in vivo [8] [h] | total protein half-life in vivo [9] [h] | total protein half-life in vivo [10] [h] | total protein half-life in vivo [11] [h] | total protein half-life in vivo [12] [h]
MMEILRGSPALSAFRINKLLARFQAARLPVHNIYAEYVHFADLNAPLNDDEHAQLERLLKYGPALASHAPQGKLLLVTPRPGTISPWSSKATDIAHNCGLQQVNRLERGVAYYIEAGTLTNEQWQQVTAELHDRMMETVFFALDDAEQLFAHHQPTPVTSVDLLGQGRQALIDANLRLGLALAEDEIDYLQDAFTKLGRNPNDIELYMFAQANSEHCRHKIFNADWVIDGEQQPKSLFKMIKNTFETTPDHVLSAYKDNAAVMEGSEVGRYFADHETGRYDFHQEPAHILMKVETHNHPTAISPWPGAATGSGGEIRDEGATGRGAKPKAGLVGFSVSNLRIPGFEQPWEEDFGKPERIVTALDIMTEGPLGGAAFNNEFGRPALNGYFRTYEEKVNSHNGEELRGYHKPIMLAGGIGNIRADHVQKGEINVGAKLVVLGGPAMNIGLGGGAASSMASGQSDADLDFASVQRDNPEMERRCQEVIDRCWQLGDANPILFIHDVGAGGLSNAMPELVSDGGRGGKFELREILSDEPGMSPLEIWCNESQERYVLAVAADQLPLFDELCKRERAPYAVIGEATEELHLSLHDRHFDNQPIDLPLDVLLGKTPKMTRDVQTLKAKGDALAREGITIADAVKRVLHLPTVAEKTFLVTIGDRSVTGMVARDQMVGPWQVPVANCAVTTASLDSYYGEAMAIGERAPVALLDFAASARLAVGEALTNIAATQIGDIKRIKLSANWMAAAGHPGEDAGLYEAVKAVGEELCPALGLTIPVGKDSMSMKTRWQEGNEEREMTSPLSLVISAFARVEDVRHTITPQLSTEDNALLLIDLGKGNNALGATALAQVYRQLGDKPADVRDVAQLKGFYDAIQALVAQRKLLAYHDRSDGGLLVTLAEMAFAGHCGIDADIATLGDDRLAALFNEELGAVIQVRAADREAVESVLAQHGLADCVHYVGQAVSGDRFVITANGQTVFSESRTTLRVWWAETTWQMQRLRDNPECADQEHQAKSNDADPGLNVKLSFDINEDVAAPYIATGARPKVAVLREQGVNSHVEMAAAFHRAGFDAIDVHMSDLLTGRTGLEDFHALVACGGFSYGDVLGAGEGWAKSILFNDRVRDEFATFFHRPQTLALGVCNGCQMMSNLRELIPGSELWPRFVRNTSDRFEARFSLVEVTQSPSLLLQGMVGSQMPIAVSHGEGRVEVRDAAHLAALESKGLVALRYVDNFGKVTETYPANPNGSPNGITAVTTESGRVTIMMPHPERVFRTVSNSWHPENWGEDGPWMRIFRNARKQLG | 5.77 ± 0.51 | 4.8 ± 0.37 | 4.73 ± 0.32 | 5.07 ± 0.55 | 4.63 ± 0.36 | 3.03 ± 0.051 | 5.98 ± 0.39 | 10.4 ± 0.62 | 4.72 ± 0.081 | 8.05 ± 0.21 | 6.31 ± 0.075 | 11.5 ± 0.43
MSTANQKPTESVSLNAFKQPKAFYLIFSIELWERFGYYGLQGIMAVYLVKQLGMSEADSITLFSSFSALVYGLVAIGGWLGDKVLGTKRVIMLGAIVLAIGYALVAWSGHDAGIVYMGMAAIAVGNGLFKANPSSLLSTCYEKNDPRLDGAFTMYYMSVNIGSFFSMIATPWLAAKYGWSVAFALSVVGLLITIVNFAFCQRWVKQYGSKPDFEPINYRNLLLTIIGVVALIAIATWLLHNQEVARMALGVVAFGIVVIFGKEAFAMKGAARRKMIVAFILMLEAIIFFVLYSQMPTSLNFFAIRNVEHSILGLAVEPEQYQALNPFWIIIGSPILAAIYNKMGDTLPMPTKFAIGMVMCSGAFLILPLGAKFASDAGIVSVSWLVASYGLQSIGELMISGLGLAMVAQLVPQRLMGFIMGSWFLTTAGANLIGGYVAGMMAVPDNVTDPLMSLEVYGRVFLQIGVATAVIAVLMLLTAPKLHRMTQDDAADKAAKAAVA | – | – | – | – | – | – | – | – | – | 4.49 | – | –
MDIPVNAAKPGRRRYLTLVMIFITVVICYVDRANLAVASAHIQEEFGITKAEMGYVFSAFAWLYTLCQIPGGWFLDRVGSRVTYFIAIFGWSVATLFQGFATGLMSLIGLRAITGIFEAPAFPTNNRMVTSWFPEHERASAVGFYTSGQFVGLAFLTPLLIWIQEMLSWHWVFIVTGGIGIIWSLIWFKVYQPPRLTKGISKAELDYIRDGGGLVDGDAPVKKEARQPLTAKDWKLVFHRKLIGVYLGQFAVASTLWFFLTWFPNYLTQEKGITALKAGFMTTVPFLAAFVGVLLSGWVADLLVRKGFSLGFARKTPIICGLLISTCIMGANYTNDPMMIMCLMALAFFGNGFASITWSLVSSLAPMRLIGLTGGVFNFAGGLGGITVPLVVGYLAQGYGFAPALVYISAVALIGALSYILLVGDVKRVG [P0AA76] | – | – | – | – | – | – | 4.54 ± 0.49 | 7.29 ± 0.43 | – | – | – | –
MMPEIGNGLLCLALGIALLLSVYPLWGVARGDARMMASSRLFAWLLFMSVAGAFLVLVNAFVVNDFTVTYVASNSNTQLPVWYRVAATWGAHEGSLLLWVLLMSGWTFAVAIFSQRIPLDIVARVLAIMGMVSVGFLLFILFTSNPFSRTLPNFPIEGRDLNPLLQDPGLIFHPPLLYMGYVGFSVAFAFAIASLLSGRLDSTYARFTRPWTLAAWIFLTLGIVLGSAWAYYELGWGGWWFWDPVENASFMPWLVGTALMHSLAVTEQRASFKAWTLLLAISAFSLCLLGTFLVRSGVLVSVHAFASDPARGMFILAFMVLVIGGSLLLFAARGHKVRSRVNNALWSRESLLLANNVLLVAAMLVVLLGTLLPLVHKQLGLGSISIGEPFFNTMFTWLMVPFALLLGVGPLVRWGRDRPRKIRNLLIIAFISTLVLSLLLPWLFESKVVAMTVLGLAMACWIAVLAIAEAALRISRGTKTTFSYWGMVAAHLGLAVTIVGIAFSQNYSVERDVRMKSGDSVDIHEYRFTFRDVKEVTGPNWRGGVATIGVTRDGKPETVLYAEKRYYNTAGSMMTEAAIDGGITRDLYAALGEELENGAWAVRLYYKPFVRWIWAGGLMMALGGLLCLFDPRYRKRVSPQKTAPEAV | – | – | – | 6.56 | 4.59 | – | > 8 | > 16 | – | – | 6.24 | 9.96
MPGRFELKPTLEKVWHAPDNFRFMDPLPPMHRRGIIIAAIVLVVGFLLPSDDTPNAPVVTREAQLDIQSQSQPPTEEQLRAQLVTPQNDPDQVAPVAPEPIQEGQPEEQPQTTQTQPFQPDSGIDNQWRSYRVEPGKTMAQLFRDHGLPATDVYAMAQVEGAGKPLSNLQNGQMVKIRQNASGVVTGLTIDTGNNQQVLFTRQPDGSFIRAR | 5.6 ± 0.12 | 6.35 ± 0.2 | 5.57 ± 0.45 | 6.65 ± 0.27 | 6.12 ± 0.68 | – | 5 ± 0.64 | 9.18 ± 0.36 | 5.79 ± 1.1 | 11.4 ± 0.3 | – | 8.86 ± 0.21
MKIIILGAGQVGGTLAENLVGENNDITVVDTNGERLRTLQDKFDLRVVQGHGSHPRVLREAGADDADMLVAVTSSDETNMVACQVAYSLFNTPNRIARIRSPDYVRDADKLFHSDAVPIDHLIAPEQLVIDNIYRLIEYPGALQVVNFAEGKVSLAVVKAYYGGPLIGNALSTMREHMPHIDTRVAAIFRHDRPIRPQGSTIVEAGDEVFFIAASQHIRAVMSELQRLEKPYKRIMLVGGGNIGAGLARRLEKDYSVKLIERNQQRAAELAEKLQNTIVFFGDASDQELLAEEHIDQVDLFIAVTNDDEANIMSAMLAKRMGAKKVMVLIQRRAYVDLVQGSVIDIAISPQQATISALLSHVRKADIVGVSSLRRGVAEAIEAVAHGDESTSRVVGRVIDEIKLPPGTIIGAVVRGNDVMIANDNLRIEQGDHVIMFLTDKKFITDVERLFQPSPFFL [P0AGI8] | 6.84 ± 1.2 | 4.97 ± 0.52 | 5.96 ± 0.17 | 5.31 ± 0.37 | 5.41 ± 0.16 | 3.056 ± 0.029 | 6.56 ± 0.57 | 11.5 ± 0.3 | 5.839 ± 0.044 | 12 ± 0.56 | 6.38 ± 0.11 | 13.2 ± 0.66
